# Results from patent US20130310317A1 (Bristol-Myers Squibb, published 2013).
# Where two headings read alike, the source gives them in different places.
# Key:
# human IGF-IR on cells [1] = molecular target: T1, human IGF-IR on cells (human, UniProt P08069 31-1367); assay: cell-based or functional assay
# human IGF-IR on cells [2] = molecular target: T1, human IGF-IR on cells; assay: displacement of [125I]-IGF-I from MCF-7 cells
# Protocol: (§1) Cells were subsequently lysed and radioactivity was quantitated.
# (§2) The human breast adenocarcinoma MCF-7 (ATCC, Manassas, Va.) was plated in 24 well plates at a concentration of 50,000 cells per well in RPMI 1640 (Invitrogen, Carlsbad, Calif.) containing 10% fetal bovine serum (Hyclone, Logan, Utah). The following day, cells were washed in binding buffer consisting of RPMI 1640 containing 0.1% BSA (Sigma, St. Louis, Mo.), and then pre-incubated for 30 minutes on ice in 200 μL binding buffer containing IGF-IR competitor. […] The wells were then washed with ice cold PBS containing 0.1% BSA. Cells were lysed with 500 μL buffer consisting of 0.1% SDS+0.5 N NaOH. Radioactivity of the lysates was measured using a Wallac 1470 Gamma Counter (Perkin Elmer, Wellesley, Mass.), and the data were analyzed using SigmaPlot (Systat Software, Point Richmond, Calif.).
# human IGF-IR on cells [3] = molecular target: T1, human IGF-IR on cells; assay: displacement of 40 pM [125I]-IGF-I from MCF-7 cells, on ice, cell-bound CPM
# Protocol: as §1, §2
# [4] = molecular target: T2, recombinant human insulin receptor (human, UniProt P06213-2 28-944, limits assumed); assay: SPR (BIAcore), IR amine-coupled to chip
# T2 construct: Amine-coupled to a CM5 chip (8300 RU); also called IR
# Protocol: (§3) In brief, 60 ug/mL of IR diluted in acetate 4.5 was coupled/immobilized to a level of 8300 RU and 11.9 ug/mL of VEGF-R2-Fc diluted in acetate 5.0 was immobilized to a level of 9700 RU on flow cells 2 and 3. A blank reference surface was prepared on FC 1. […] Fibronectin-based scaffold proteins were diluted to 10 uM in HBS-EP (10 mM Hepes 150 mM NaCl 3 mM EDTA 0.05% Surfactant P20) and injected at 20 uL/min for 3 minutes over the flow cells at 25 C and dissociation was observed over 10 mins.
# recombinant human IGF-IR [5] = molecular target: T3, recombinant human IGF-IR (human, UniProt P08069 31-932); assay: competitive ELISA, coated IGF-IR, biotinylated IGF-I as competitor
# T3 construct: Bought (R&D Systems); also called insulin-like growth factor-I receptor; IGF-1R
# Protocol: (§4) MaxiSorp™ plates (Nunc International, Rochester, N.Y.) were coated with 30 nM IGF-IR in PBS at 4° C. overnight followed by blocking in OptEIA buffer (BD biosciences, San Diego, Calif.) for 3 hours at room temperature. Purified fibronectin-based scaffold proteins in OptEIA buffer were bound to each well for 1 hour at room temperature at concentrations ranging from 50 pM to 1 μM. […] The excess ligand was removed by washing with PBST and bound ligand was detected with streptavidin-HRP (Pierce, Rockford, Ill.) using TMB detection reagents (BD biosciences) according to the manufacturer's instructions
# IGF-IR-Fc [6] = molecular target: T4, IGF-IR-Fc (human, UniProt P08069 31-932); assay: SPR (BIAcore); IGF-IR-Fc captured on Protein A, clone in solution
# T4 construct: range 1-932; Made in house by transient transfection, captured on Protein A on CM5 chips for kinetic analysis; also called human IGF-IR-Fc fusion protein; recombinant, immobilized IGF-IR (BIAcore); not shown: hinge and constant regions of human IgG1
# Protocol: One liter E. coli growths of selected optimized clones were prepared and the proteins were purified. Surface plasmon resonance (BIAcore) analysis was performed using recombinant, immobilized IGF-IR and solution-phase clones in order to determine binding kinetics and binding affinities.
# (§5) The binding kinetics of fibronectin-based scaffold proteins binding proteins to the target was measured using BIAcore 2000 or 3000 biosensors (Pharmacia Biosensor). A capture assay was developed utilizing an IGF-IR-Fc fusion. A similar reagent had been described by Forbes et al. (Forbes et al. 2002, European J. Biochemistry, 269, 961-968). The extracellular domain of human IGF-IR (aa 1-932) was cloned into a mammalian expression vector containing the hinge and constant regions of human IgG1. Transient transfection of the plasmid produced a fusion protein, IGF-IR-Fc which was subsequently purified by Protein A chromatography and captured on Protein A immobilized on Biasensor CM5 chips by amine coupling. The kinetic analysis involved the capture of IGF-IR-Fc on Protein A followed by injection of the fibronectin-based scaffold protein in solution and regeneration of the Protein A surface by glycine pH 2.0. Sensorgrams were obtained at each concentration and were evaluated using a program Biaevaluation, BIA Evaluation 2.0 (BIAcore), to determine the rate constants kₐ (kₒₙ) and kd (koff) The dissociation constant, KD was calculated from the ratio of rate constants koff/kₒₙ. Typically, a concentration series (2 uM to 0 uM) of purified fibronectin-based scaffold protein was evaluated for binding to protein A captured human IGF-IR-Fc fusion protein.
# [7] = molecular target: T2, recombinant human insulin receptor; assay: SPR (BIAcore); IR amine-coupled to chip, clone at 10 µM, signal as % of insulin signal
# Protocol: (§6) One liter E. coli growths of selected optimized clones were prepared and the proteins were purified.
# as §3
# recombinant human IGF-IR [8] = molecular target: T3, recombinant human IGF-IR; assay: direct binding ELISA: plate coated with 10 nM IGF-IR, His-tagged clone detected with His-HRP probe, TMB, OD450
# Protocol: MaxiSorp™ plates (Nunc International, Rochester, N.Y.) were coated with 10 nM IGF-IR in PBS at 4° C. overnight followed by blocking in PBS-casein buffer (Pierce) for 3 hours at room temperature. Purified fibronectin-based scaffold proteins in casein buffer were bound to each well for 1 hour at room temperature at a concentration of 5 nM. The plate was washed with PBST and 100 μl of a 1:4000 dilution of His-HRP probe (Pierce) was added to each well with incubation for 15 min at room temperature. The wells were washed 5 times with PBST and the bound HRP was detected with TMB detection reagents (BD biosciences) according to the manufacturer's instructions.
# recombinant human IGF-IR [9] = molecular target: T3, recombinant human IGF-IR; assay: competitive ELISA: plate coated with 30 nM IGF-IR, clone bound first, then 10 nM biotinylated IGF-I as the blocked ligand, streptavidin-HRP/TMB, OD450
# Protocol: as §4
# [10] = molecular target: T2, recombinant human insulin receptor; assay: SPR (BIAcore), IR amine-coupled to chip; remark: listed apart in the source
# Protocol: as §6, §3
# IGF-IR-Fc [11] = molecular target: T4, IGF-IR-Fc; assay: SPR (BIAcore); IGF-IR-Fc captured on Protein A, clone in solution; remark: listed apart in the source
# Protocol: as §5
# IGF-IR-Fc [12] = molecular target: T4, IGF-IR-Fc; assay: SPR (BIAcore); immobilized IGF-IR, analyte in solution
# Protocol: as §5
# IGF-IR-Fc [13] = molecular target: T4, IGF-IR-Fc; assay: SPR (BIAcore); IGF-IR-Fc captured on Protein A, analyte in solution
# Protocol: as §5
"IC50, serum mediated proliferation of NCI-H929 cells (human IGF-IR on cells [1]) [pM]",IC50 (human IGF-IR on cells [2]) [nM],IC50 (read off the curve) (human IGF-IR on cells [3]) [nM],Kd (IGF-IR-Fc [6]) [nM],koff (IGF-IR-Fc [6]) [s⁻¹],kon (IGF-IR-Fc [6]) [M⁻¹ s⁻¹],IC50 (read off the curve) (recombinant human IGF-IR [9]) [nM],fold change of on-rate (ka) relative to unmodified 385A08 (IGF-IR-Fc [12]),Kd (IGF-IR-Fc [13]) [nM],koff (IGF-IR-Fc [13]) [s⁻¹],kon (IGF-IR-Fc [13]) [M⁻¹ s⁻¹],Molecule,further results
100,5,2,–,–,–,–,–,–,–,–,anti-IGF-IR monoclonal antibody MAB391,–
–,–,–,0.057,0.00022,3.8e+06,~1,–,–,–,–,"353H09 (designed binder, Optimized derivative of 218C04) VSDVPRDLEVVAATPTSLLISWSDKLKVQRYYRITYGETGGNSPVQEFTVPKHDRTATISGLKPGVDYTITVYAVTKMRDYRPISINYRTHHHHHH",binding result [10]: no binding (tested: 10 µM)
~1000,–,–,–,–,–,–,~10 fold slower,0.355,0.00021,600000,"385A08-PEG40 (designed binder, Cys97 coupled by maleimide chemistry to a mono-functional branched 40 kDa PEG) GVSDVPRDLEVVAATPTSLLISWSARLKVARYYRITYGETGGNSPVQEFTVPKNVYTATISGLKPGVDYTITVYAVTRFRDYQPISINYRTEIDKPCQ",–
< 0.1,–,–,–,–,–,–,~2 fold faster,0.006,9e-05,1.5e+07,"385A08-PEG20-385A08 (designed binder, Cys97 coupled by maleimide chemistry to a linear 20 kDa bifunctional PEG that links the two chains, Two copies of 385A08 with the C-terminal Cys extension, joined through PEG; also called PEG20-385A08-PEG20 variant) GVSDVPRDLEVVAATPTSLLISWSARLKVARYYRITYGETGGNSPVQEFTVPKNVYTATISGLKPGVDYTITVYAVTRFRDYQPISINYRTEIDKPCQ",–

# More lines, now with the values behind:
Molecule,"IC50, serum mediated proliferation of NCI-H929 cells (human IGF-IR on cells [1]) [pM]",IC50 (human IGF-IR on cells [2]) [nM],IC50 (read off the curve) (human IGF-IR on cells [3]) [nM],Kd (IGF-IR-Fc [6]) [nM],koff (IGF-IR-Fc [6]) [s⁻¹],kon (IGF-IR-Fc [6]) [M⁻¹ s⁻¹],IC50 (read off the curve) (recombinant human IGF-IR [9]) [nM],fold change of on-rate (ka) relative to unmodified 385A08 (IGF-IR-Fc [12]),Kd (IGF-IR-Fc [13]) [nM],koff (IGF-IR-Fc [13]) [s⁻¹],kon (IGF-IR-Fc [13]) [M⁻¹ s⁻¹],further results
"338A06 (designed binder, Optimized derivative of 218C04; also called clone 338A06; parent clone 338A06) VSDVPRDLEVVAATPTSLLISWSARLKVARYYRITYGETGGNSPVQEFTVPKNVYTATISGLKPGVDYTITVYAVTKMRDYRPISINYRTHHHHHH",–,1 to 2,~1,0.069,0.00043,~6.2e+06,~0.7,–,–,–,–,"IC50, IGF-I-dependent proliferation of BxPC-3 cells (3H-thymidine) (human IGF-IR on cells [1]): 10 to 20 nM; binding result [4]: no binding (tested: 10 µM); IC50 (recombinant human IGF-IR [5]): ≤ 1 nM; % IR Binding at 10 µM [7]: 2%; EC50 (read off the curve) (recombinant human IGF-IR [8]): ~2 nM"
"218C04 (designed binder, also called clone 218C04; pre-optimized clone) VSDVPRDLEVVAATPTSLLISWSPYLRVARYYRITYGETGGNSPVQEFTVPSSARTATISGLKPGVDYTITVYAVTPSNIIGRHYGPISINYRTHHHHHH",–,–,–,–,–,–,–,–,–,–,–,Kd (IGF-IR-Fc [11]): 1.8 nM
